Source: patent US20210063414A1, “METHODS FOR PREVENTING AND/OR TREATING BONE LOSS CONDITIONS BY MODULATING IRISIN” (Dana-Farber Cancer Institute, Inc., priority 2018, published 2021)

Target: T1, integrin αV/β3 (Homo sapiens, UniProt P05106+P06756)
T1 construct: expressed in transfected cells; host or cells: HEK293T
Assay: FAK phosphorylation in HEK293T cells with forced expression of integrin αV/β3
Assay type: cell-based
Settings: HEK293T, forced expression of integrin αV/β3, irisin 5 minutes
Description: 100 nM irisin was incubated with 5 nM indicated his-tag integrins followed by immunoprecipitation using Ni-NTA agaroses. Precipitated integrins and co-precipitated irisin were analyzed by immunoblot analysis. […] HEK293T cells were seeded and incubated until 50% cell density. The cells were transfected with 0.1 μg plasmids of indicated integrins. After 48 hours, the cells were incubated with Freestyle293 medium for 3 hours and were treated with indicated concentration of irisin for 5 minutes. Cells were lysed to detect the indicated protein level using immunoblot analysis. […] MLO-Y4 cells were treated as described in FIG. 2D with addition of pretreatment of indicated antagonistic antibodies for 10 minutes. Cells were lysed to detect the indicated protein level using immunoblot analysis. […] Sclerostin mRNA level was analyzed by qRT-PCR. […]
100 nM irisin was incubated with 5 nM indicated his-tag integrins followed by immunoprecipitation using Ni-NTA agaroses. Precipitated integrins and co-precipitated irisin were analyzed by immunoblot analysis. […] Cells were treated and analyzed as FIG. 14B except using plasmids encoding integrin α5/β1 or integrin α11/β1 (FIG. 15C) integrin αV/β1(FIG. 15D). […]
Cells were harvested in RIPA buffer containing protease-inhibitor cocktail and phosphataseinhibitor cocktail. […] Protein levels were analyzed via western blot using indicated antibody. […]

T1 sequence (P06756 31-889 limits assumed): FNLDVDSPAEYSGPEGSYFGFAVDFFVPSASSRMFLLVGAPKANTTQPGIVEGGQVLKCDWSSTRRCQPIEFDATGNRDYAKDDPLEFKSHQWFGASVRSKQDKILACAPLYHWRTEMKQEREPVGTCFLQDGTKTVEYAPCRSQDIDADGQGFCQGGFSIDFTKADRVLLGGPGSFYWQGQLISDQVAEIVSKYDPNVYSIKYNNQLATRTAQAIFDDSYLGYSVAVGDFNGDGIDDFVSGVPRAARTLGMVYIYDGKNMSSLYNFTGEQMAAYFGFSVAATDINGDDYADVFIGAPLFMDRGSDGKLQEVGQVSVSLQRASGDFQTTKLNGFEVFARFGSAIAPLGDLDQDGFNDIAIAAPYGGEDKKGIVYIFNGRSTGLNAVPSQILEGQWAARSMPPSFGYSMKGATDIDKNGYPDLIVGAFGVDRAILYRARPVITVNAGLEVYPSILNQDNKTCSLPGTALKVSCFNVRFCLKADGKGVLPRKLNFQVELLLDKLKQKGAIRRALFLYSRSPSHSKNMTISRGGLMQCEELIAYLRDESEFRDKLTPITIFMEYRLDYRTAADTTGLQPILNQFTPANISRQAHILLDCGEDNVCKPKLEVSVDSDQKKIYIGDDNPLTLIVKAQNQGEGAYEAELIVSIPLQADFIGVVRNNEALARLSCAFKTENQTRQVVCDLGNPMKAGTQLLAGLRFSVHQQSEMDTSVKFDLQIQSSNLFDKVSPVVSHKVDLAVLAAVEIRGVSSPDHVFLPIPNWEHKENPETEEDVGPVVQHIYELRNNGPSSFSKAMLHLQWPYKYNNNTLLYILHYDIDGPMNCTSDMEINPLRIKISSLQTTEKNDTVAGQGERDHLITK
T1 sequence (P06756 891-1048 partner limits assumed): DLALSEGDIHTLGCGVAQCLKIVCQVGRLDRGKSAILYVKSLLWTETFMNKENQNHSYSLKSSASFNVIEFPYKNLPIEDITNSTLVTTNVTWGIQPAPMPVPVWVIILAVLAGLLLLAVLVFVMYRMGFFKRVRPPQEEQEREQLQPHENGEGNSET
T1 sequence (P05106 27-788): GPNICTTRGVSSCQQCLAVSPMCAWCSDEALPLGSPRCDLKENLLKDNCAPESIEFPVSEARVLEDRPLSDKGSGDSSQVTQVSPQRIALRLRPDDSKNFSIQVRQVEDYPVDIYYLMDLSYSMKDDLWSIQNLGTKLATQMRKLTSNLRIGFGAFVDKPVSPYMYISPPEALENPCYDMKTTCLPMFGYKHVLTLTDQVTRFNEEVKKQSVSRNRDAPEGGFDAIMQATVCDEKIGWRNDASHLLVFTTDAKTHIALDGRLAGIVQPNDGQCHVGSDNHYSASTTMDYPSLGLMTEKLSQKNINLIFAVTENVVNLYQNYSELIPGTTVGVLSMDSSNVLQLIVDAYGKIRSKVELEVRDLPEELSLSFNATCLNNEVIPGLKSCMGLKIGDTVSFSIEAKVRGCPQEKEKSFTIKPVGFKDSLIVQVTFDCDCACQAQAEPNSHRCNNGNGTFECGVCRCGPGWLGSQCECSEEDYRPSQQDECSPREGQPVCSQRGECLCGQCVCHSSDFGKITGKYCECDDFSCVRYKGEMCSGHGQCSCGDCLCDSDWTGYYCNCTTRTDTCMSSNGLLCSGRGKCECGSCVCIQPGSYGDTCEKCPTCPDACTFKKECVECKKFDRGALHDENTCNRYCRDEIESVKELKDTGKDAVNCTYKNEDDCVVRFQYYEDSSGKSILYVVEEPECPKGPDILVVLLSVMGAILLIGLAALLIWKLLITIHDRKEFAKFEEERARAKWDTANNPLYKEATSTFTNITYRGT

B1: irisin: secreted cleaved form of FNDC5; recombinant human/mouse irisin with C-terminal his tag produced in HEK293 cells (protein)
chain: DSPSAPVNVTVRHLKANSAVVSWDVLEDEVVIGFAISQQKKDVRMLRFIQEVNTTTRSCALWDLEEDTEYIVHVQAISIQGQSPASEPVLFKTPREAEKMASKNKDEVTMKE
modifications: left off: small tags and cut ends
notes: secreted cleaved form of FNDC5; recombinant human/mouse irisin with C-terminal his tag produced in HEK293 cells
phosphorylation of FAK upon irisin treatment: not
